Test results from PMC5262380, “Structural insights into the mechanism of the DEAH-box RNA helicase Prp43” (eLife, 2017).

Columns and labels:
[1] = biological target: ctPrp43 (DEAH-box RNA helicase Prp43 from Chaetomium thermophilum), wild type (C. thermophilum) (UniProt G0RY84)
[2] = biological target: ctPrp43 (DEAH-box RNA helicase Prp43 from Chaetomium thermophilum), wild type (C. thermophilum) (UniProt G0RY84); remark: listed apart in the source
[3] = biological target: ctPrp43(F181C, N623C) (C. thermophilum)
[4] = biological target: ctPrp43(R180G, F181G) (C. thermophilum)
[5] = biological target: ctPrp43(R180G, F181G, Y348G, T350G) (C. thermophilum)
[6] = biological target: ctPrp43(Y348G, T350G) (C. thermophilum)

Substance	helicase activity (maximal unwinding velocity of a dsRNA with 3' overhang; 250 nM ctPrp43, 1.25 uM G-patch; ctPrp43 alone 0.54 nM/min) [1]	ATPase activity kcat with five-fold excess of G-patch, no RNA (ctPrp43 alone 1.81 min^-1) [2]	ATPase activity kcat with five-fold excess of G-patch, no RNA (ctPrp43-IDSB alone 5.04 min^-1) [3]	ATPase activity kcat with five-fold excess of G-patch, no RNA (ctPrp43-HT alone 13.21 min^-1) [4]	ATPase activity kcat with five-fold excess of G-patch, no RNA (ctPrp43-HT&HL alone 7.61 min^-1) [5]	ATPase activity kcat with five-fold excess of G-patch, no RNA (ctPrp43-HL alone 6.19 min^-1) [6]
ctPfa1(662-742), truncated G-patch construct of the C. thermophilum Pfa1 homolog (domain or fragment)	60 nM/min	0.605 s⁻¹	3.32 s⁻¹	1.02 s⁻¹	1.89 s⁻¹	1.44 s⁻¹
ctNtr1(242-305), truncated G-patch construct of the C. thermophilum Ntr1 homolog (domain or fragment)	1.98 nM/min	0.0693 s⁻¹				
